Reference: patent publication US20210292409A1 (Chugai, published 2021)

T1: human ASGPR (ASGPR-H1 and ASGPR-H2 subunits) (human, UniProt P07306 2-291; P07307 2-311)
T1 construct: Plasmids for H1 and H2 transfected in a ratio of 2:1 into HeLa cells; also called Asialoglycoprotein receptor
T1 sequence 1: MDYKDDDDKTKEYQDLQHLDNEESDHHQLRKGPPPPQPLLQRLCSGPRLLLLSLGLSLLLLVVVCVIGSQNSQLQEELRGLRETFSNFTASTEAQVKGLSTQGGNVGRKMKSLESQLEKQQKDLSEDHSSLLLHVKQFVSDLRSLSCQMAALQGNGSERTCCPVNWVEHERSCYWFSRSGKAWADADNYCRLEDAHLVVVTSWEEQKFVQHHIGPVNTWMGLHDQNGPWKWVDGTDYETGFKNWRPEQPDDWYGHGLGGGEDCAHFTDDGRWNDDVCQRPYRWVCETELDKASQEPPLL
T1 sequence 2: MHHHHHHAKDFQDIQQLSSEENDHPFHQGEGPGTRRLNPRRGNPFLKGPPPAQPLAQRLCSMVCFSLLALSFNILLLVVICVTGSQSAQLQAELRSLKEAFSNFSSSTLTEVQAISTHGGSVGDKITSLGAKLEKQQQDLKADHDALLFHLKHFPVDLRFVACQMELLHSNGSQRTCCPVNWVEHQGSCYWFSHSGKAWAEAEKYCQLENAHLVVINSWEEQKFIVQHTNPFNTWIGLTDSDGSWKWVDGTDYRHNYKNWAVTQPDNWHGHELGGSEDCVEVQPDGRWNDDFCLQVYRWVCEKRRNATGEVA

T2: human IL6R (Accession no. NP_000556) (human, UniProt P08887 20-468)
T2 construct: whole, on cells; Expressed on Flp-In-CHO cells (IL6R+CHO)
T2 sequence (looked up): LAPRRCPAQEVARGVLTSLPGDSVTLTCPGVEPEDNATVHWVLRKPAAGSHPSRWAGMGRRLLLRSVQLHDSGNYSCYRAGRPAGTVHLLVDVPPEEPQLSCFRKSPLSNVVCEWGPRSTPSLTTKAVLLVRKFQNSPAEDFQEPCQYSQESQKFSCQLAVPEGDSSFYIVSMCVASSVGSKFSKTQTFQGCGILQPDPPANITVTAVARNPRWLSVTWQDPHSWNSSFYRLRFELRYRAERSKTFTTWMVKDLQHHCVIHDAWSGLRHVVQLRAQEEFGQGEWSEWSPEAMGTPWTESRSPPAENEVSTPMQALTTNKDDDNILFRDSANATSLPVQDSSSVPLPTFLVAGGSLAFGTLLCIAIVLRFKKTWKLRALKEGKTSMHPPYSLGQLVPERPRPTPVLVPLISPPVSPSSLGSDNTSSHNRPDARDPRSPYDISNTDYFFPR


Legend:
[1] = target: T1, human ASGPR (ASGPR-H1 and ASGPR-H2 …); assay: flow cytometry on HeLa/ASGPR/BirA cells
[2] = target: T2, human IL6R (Accession no. NP_000556); assay: flow cytometry on HeLa/BirA cells transfected with human IL6R; antibody at 1 micro M in the sorting step
Description: To select cells stably expressing IL6R, antibiotic resistant cells were incubated with 1 micro M of anti-IL6R antibody PF1H-G4T1K439E.Avi/PF1L-KT0 (heavy chain, PF1H-G4T1K439E.Avi (SEQ ID NO: 66); light chain, PF1L-KT0 (SEQ ID NO: 67) in MACS buffer (Auto MACS Rinsing Solution (Miltenyi Biotec, Cat #130-091-222) and MACS BSA Stock Solution (Miltenyi Biotec, Cat #1130-091-376)) for 30 min on ice. After wash in MACS buffer, cells were further incubated with R-phycoerythrin (PE) labelled anti-kappa antibody (Southern Biotech, Cat #2060-09) for 30 min on ice in MACS buffer. After wash in MACS buffer, cells expressing IL6R were sorted by FACSAria IIu sorter (Becton Dickinson). Selected clones were then expanded. Flow cytometry using anti-IL6R antibody PF1H-G4T1K439E.Avi/PF1L-KT0 and R-phycoerythrin (PE) labelled anti-kappa antibody (Southern Biotech, Cat #2060-09) with FACS Verse (Becton Dickinson) confirmed high expression of IL6R. BirA expression was also confirmed by capillary immunoassay using Simple Western Wes (Protein Simple).

Row | binding result [1] | binding result [2] | Binder
1 | binds |  | anti-ASGPR antibody AGA0008Ha-G4T1K439E.Avi/AGA0008La-kOMC (antibody, human IgG4 S228P, kappa, V domains shown) VH: QSVEESGGRLVTPGTPLTLTCTVSGFSLSSYAMGWVRQAPGKGLEYIGFINTGGSPYYASWAKGRFTISRTSTTVDLKMTSPTTEDTATYFCARDYDTSSGYYGYFNLWGPGTLVTVSS VL: AQVLTQTPASVSAAVGGTVTIKCQASENIDSYLAWYQQKPGQPPKLLIYRASTLASGVPSRFKGSGSGTPFTLTISDLECADAATYYCQRYVSLNSGDAFGGGTKVEIKR
2 |  | binds | anti-IL6R antibody PF1H-G4T1K439E.Avi/PF1L-KT0 (antibody, human IgG4 S228P, kappa, V domains shown) VH: QVQLQESGPGLVKPSETLSLTCAVSGYSISDDHAWSWVRQPPGEGLEWIGYISYSGITNYNPSLKGRVTISRDTSKNQFSLKLSSVTAADTAAYYCARVLARITAMDYWGEGTLVTVSS VL: DIQMTQSPSSLSASVGDSVTITCQASQDISSYLNWYQQKPGKAPELLIYYGSELHSGVPSRFSGSGSGTDFTFTISSLEAEDAATYYCGQGNRLPYTFGQGTKVEIER
